Measurements: EP2138508A1 (Helmholtz-Zentrum für Infektionsforschung GmbH, dated 2009)

Assays:
[1] = biological target: Met receptor on MK keratinocytes (mouse, UniProt P16056 25-1379); experiment: cell-based or functional assay
[2] = biological target: Met receptor on MDCK cells (UniProt Q75ZY9 25-1382); experiment: cell-based or functional assay

B1: InIB321_Crys (InIB321 G206C A227C C242A, "crystal dimer") (ligand)
chain: ETITVPTPIKQIFSDDAFAETIKDNLKKKSVTDAVTQNELNSIDQIIANNSDIKSVQGIQYLPNVTKLFLNGNKLTDIKPLANLKNLGWLFLDENKVKDLSSLKDLKKLKSLSLEHNGISDINGLVHLPQLESLYLGNNKITDITVLSRLTKLDTLSLEDNQISDIVPLACLTKLQNLYLSKNHISDLRALCGLKNLDVLELFSQEALNKPINHQSNLVVPNTVKNTDGSLVTPEIISDDGDYEKPNVKWHLPEFTNEVSFIFYQPVTIGKAKARFHGRVTQPLKE
modifications: two intermolecular disulfides: Cys 206 of chain A with Cys 227 of chain B and vice versa
stimulation of DNA synthesis in MK keratinocytes, activity relative to full-length InIB [1]: ~10 fold
cell scattering of MDCK cells, potency relative to HGF and InIBfl [2]: ~2 orders of magnitude
